From patent US20190144565A1 (UCB, published 2019)

T1: sFcεRIα, the extracellular portion of the alpha chain of the human high affinity IgE receptor (human, UniProt P12319 26-205)
T1 construct: extracellular domain; also called sFcERIa; Alexa488 labelled sFcεRIα
T1 sequence (looked up): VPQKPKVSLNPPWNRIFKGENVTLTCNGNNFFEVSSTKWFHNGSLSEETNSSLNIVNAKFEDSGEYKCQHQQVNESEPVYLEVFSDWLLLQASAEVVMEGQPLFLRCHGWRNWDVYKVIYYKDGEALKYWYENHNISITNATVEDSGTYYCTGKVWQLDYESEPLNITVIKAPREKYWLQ

B1: IgE-Fc according to Seq. ID No. 108 (V224-K547) with the mutations N265Q & N371Q (other)
chain: VASRDFTPPTVKILQSSCDGGGHFPPTIQLLCLVSGYTPGTIQITWLEDGQVMDVDLSTASTTQEGELASTQSELTLSQKHWLSDRTYTCQVTYQGHTFEDSTKKCADSNPRGVSAYLSRPSPFDLFIRKSPTITCLVVDLAPSKGTVQLTWSRASGKPVNHSTRKEEKQRNGTLTVTSTLPVGTRDWIEGETYQCRVTHPHLPRALMRSTTKTSGPRAAPEVYAFATPEWPGSRDKRTLACLIQNFMPEDISVQWLHNEVQLPDARHSTTQPRKTKGSGFFVFSRLEVTRAEWEQKDEFICRAVHEAASPSQTVQRAVSVNPGK
notes: also called IgE-Fc (N265Q, N371Q); terbium labeled IgE-Fc
B2: sFcεRIα-IgG4-Fc fusion protein (α-γ) (Fc fusion, UniProt P12319 26-205, looked up)
chain: T1 sequence (looked up)
notes: extracellular domain; also called αγ-fusion protein; Alexa Fluor 647 labeled sFcεRIα-IgG4-Fc; not shown: IgG4 Fc

Experiments:
[1] = molecular target: B2; experiment: TR-FRET; labelled αγ-fusion protein titrated on labelled IgE-Fc, no omalizumab Fab3
[2] = molecular target: T1, sFcεRIα, the extracellular portion of …; experiment: SPR; IgE-Fc captured on immobilised sFcεRIα
[3] = molecular target: B1; experiment: TR-FRET; labelled αγ-fusion protein titrated on labelled IgE-Fc, no omalizumab Fab3

B1
binding result [1]: binds | binding result [2]: binds

B2
EC50 (read off the curve) [3]: ~1 nM
